Here are results for 51 sequences from the supplement of paper PMC11780869.

The test system of this data set is Bacillus subtilis. As to the kind of experiment: cleaved RNA product abundance (RNA/gDNA barcode ratio) relative to median wild-type variant (ratio to wild type); higher = more accumulation of the downstream cleavage product. The following applies: cleavage site: cggR-gapA (positions -7 to +36 mutated). The gist of the method: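 Reporter mRNAs (truncated aprE or tetM) carrying barcoded, mutagenized RNase Y cleavage-site windows were made from oligos with a 9% error rate and integrated into the B. subtilis chromosome. Cultures grew in LB at 37°C from OD600 0.0003 to 0.3. Cleaved RNA was gel-selected, reverse transcribed and barcode-sequenced alongside genomic DNA barcodes, with UMI collapsing. Cleaved product abundance is the RNA:gDNA barcode ratio per variant, scaled to the median wild-type variant.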

Setting [1] is: experiment (reporter, strain, medium): exp 4a: truncated aprE reporter, strain BJT201 with 2% xylose (RNase J1 expressed).
Setting [2] is: experiment (reporter, strain, medium): exp 2b: truncated aprE reporter, strain BJT200.

With “ACAGACGAAGGAGCCGCAAAGAAGTTTTTAAGGGATGAGTAATCCCTCAATATAAATATCTCTCACTTATTTAAA”, the “cleaved RNA product abundance” value under setting [1] was determined as 0.235.

Turning to “ACAGACGAAGGAGCCGCAAAGAAGTTTTTAAGGGATGTATAATCCCTCAATATAAATATCTCTCACTTATTTAAA”, the “cleaved RNA product abundance” value is, setting by setting: under setting [2], 0.285; under setting [1], 0.331.

For “ACAGACGAAGGAGCCGCAAAGAAGTTTTTAAGGGATTAATAATCCCTCAATATAAATATCTCTCACTTATTTAAA”, the “cleaved RNA product abundance” value is 0.364 under setting [2] and 0.364 under setting [1].

Regarding “ACAGACGAAGGAGCCGCAAAGAAGTTTTTAAGGGTTGAATAATCCCTCAATATAAATATCTCTCACTTATTTAAA”, the “cleaved RNA product abundance” value under setting [2] was found to be 0.166 and the “cleaved RNA product abundance” value under setting [1] was determined as 0.271.

For the sequence “ACAGACGAAGGAGCCGCAAAGAAGTTTTTAAGGTATGAATAATCCCTCAATATAAATATCTCTCACTTATTTAAA”, under setting [1], the “cleaved RNA product abundance” value amounted to 0.098.

Turning to “ACAGACGAAGGAGCCGCAAAGAAGTTTTTAAGTGATGAATAATCCCTCAATATAAATATCTCTCACTTATTTAAA”, the “cleaved RNA product abundance” value is 0.117 under setting [2] and 0.0945 under setting [1].

As to “ACAGACGAAGGAGCCGCAAAGAAGTTTTTAATGGATGAATAATCCCTCAATATAAATATCTCTCACTTATTTAAA”, the “cleaved RNA product abundance” value under setting [1] was 0.175.

On to “ACAGACGAAGGAGCCGCAAAGAAGTTTTTAGGGGATGAATAATCCCTCAATATAAATATCTCTCACTTATTTAAA”, for which, under setting [1], the “cleaved RNA product abundance” value was determined as 0.507.

For the sequence “ACAGACGAAGGAGCCGCAAAGAAGTTTTTATGGGATGAATAATCCCTCAATATAAATATCTCTCACTTATTTAAA”, under setting [1], the “cleaved RNA product abundance” value is 0.323.

On to “ACAGACGAAGGAGCCGCAAAGAATATATTAAGGGATGAATAATCCCTCAATATAAATATCTCTCACTTATTTAAA”, for which the “cleaved RNA product abundance” value under setting [1] came out at 0.375.

For the sequence “ACAGACGAAGGAGCCGCAAAGAATCTATTAAGGGATGAATAATCCCTCAATATAAATATCTCTCACTTATTTAAA”, the “cleaved RNA product abundance” value under setting [1] is 0.689.

Turning to “ACAGACGAAGGAGCCGCAAAGAATGTATTAAGGGATGAATAATCCCTCAATATAAATATCTCTCACTTATTTAAA”, the “cleaved RNA product abundance” value under setting [1] turned out to be 0.695.

Take “ACAGACGAAGGAGCCGCAAAGAATTAATTAAGGGATGAATAATCCCTCAATATAAATATCTCTCACTTATTTAAA”: the “cleaved RNA product abundance” value was 0.257 under setting [2] and 0.36 under setting [1].

With “ACAGACGAAGGAGCCGCAAAGAATTCATTAAGGGATGAATAATCCCTCAATATAAATATCTCTCACTTATTTAAA”, the “cleaved RNA product abundance” value under setting [2] turned out to be 0.196 and the “cleaved RNA product abundance” value under setting [1] is 0.23.

Consider “ACAGACGAAGGAGCCGCAAAGAATTGATTAAGGGATGAATAATCCCTCAATATAAATATCTCTCACTTATTTAAA”, for which the “cleaved RNA product abundance” value under setting [1] is 0.439.

On to “ACAGACGAAGGAGCCGCAAAGAATTTAATAAGGGATGAATAATCCCTCAATATAAATATCTCTCACTTATTTAAA”, for which the “cleaved RNA product abundance” value is, setting by setting: under setting [2], 0.25; under setting [1], 0.309.

On to “ACAGACGAAGGAGCCGCAAAGAATTTACTAAGGGATGAATAATCCCTCAATATAAATATCTCTCACTTATTTAAA”, for which the “cleaved RNA product abundance” value is, setting by setting: under setting [2], 0.251; under setting [1], 0.31.

Turning to “ACAGACGAAGGAGCCGCAAAGAATTTAGTAAGGGATGAATAATCCCTCAATATAAATATCTCTCACTTATTTAAA”, the “cleaved RNA product abundance” value under setting [1] stood at 0.337.

Regarding “ACAGACGAAGGAGCCGCAAAGAATTTATAAAGGGATGAATAATCCCTCAATATAAATATCTCTCACTTATTTAAA”, the “cleaved RNA product abundance” value runs as follows: under setting [2], 0.355; under setting [1], 0.481; (experiment (reporter, strain, medium): exp 6: tetM reporter, strain 168) 0.219.

Take “ACAGACGAAGGAGCCGCAAAGAATTTATCAAGGGATGAATAATCCCTCAATATAAATATCTCTCACTTATTTAAA”: the “cleaved RNA product abundance” value is, setting by setting: under setting [2], 0.275; under setting [1], 0.377.

Take “ACAGACGAAGGAGCCGCAAAGAATTTATGAAGGGATGAATAATCCCTCAATATAAATATCTCTCACTTATTTAAA”: under setting [1], the “cleaved RNA product abundance” value was determined as 0.325.

For the sequence “ACAGACGAAGGAGCCGCAAAGAATTTATTAAAGGATGAAAAATCCCTCAATATAAATATCTCTCACTTATTTAAA”, the “cleaved RNA product abundance” value under setting [1] was found to be 0.197.

Turning to “ACAGACGAAGGAGCCGCAAAGAATTTATTAAAGGATGAATAATCCCTCAATATAAATATCTCTCACTTATTTAAA”, the “cleaved RNA product abundance” value worked out at 0.171 under setting [2] and 0.213 under setting [1].

On to “ACAGACGAAGGAGCCGCAAAGAATTTATTAACGGATGAATAATCCCTCAATATAAATATCTCTCACTTATTTAAA”, for which, under setting [1], the “cleaved RNA product abundance” value was 0.203.

“ACAGACGAAGGAGCCGCAAAGAATTTATTAAGAGATGAATAATCCCTCAATATAAATATCTCTCACTTATTTAAA”: the “cleaved RNA product abundance” value by setting is: under setting [2], 0.112; under setting [1], 0.142.

For “ACAGACGAAGGAGCCGCAAAGAATTTATTAAGCGATGAATAATCCCTCAATATAAATATCTCTCACTTATTTAAA”, the “cleaved RNA product abundance” value was 0.116 under setting [2] and 0.122 under setting [1].

Regarding “ACAGACGAAGGAGCCGCAAAGAATTTATTAAGGAATGAATAATCCCTCAATATAAATATCTCTCACTTATTTAAA”, the “cleaved RNA product abundance” value by setting is: under setting [2], 0.0897; under setting [1], 0.125.

In the case of “ACAGACGAAGGAGCCGCAAAGAATTTATTAAGGCATGAATAATCCCTCAATATAAATATCTCTCACTTATTTAAA”, the “cleaved RNA product abundance” value by setting is: under setting [2], 0.1; under setting [1], 0.111.

As to “ACAGACGAAGGAGCCGCAAAGAATTTATTAAGGCATGAATAATCCCTCTATATAAATATCTCTCACTTATTTAAA”, the “cleaved RNA product abundance” value under setting [1] worked out at 0.107.

With “ACAGACGAAGGAGCCGCAAAGAATTTATTAAGGGAAGAATAATCCCTCAATATAAATATCTCTCACTTATTTAAA”, the “cleaved RNA product abundance” value reads like this: under setting [2], 0.289; under setting [1], 0.518.

With “ACAGACGAAGGAGCCGCAAAGAATTTATTAAGGGACGAATAATCCCTCAATATAAATATCTCTCACTTATTTAAA”, the “cleaved RNA product abundance” value reads like this: under setting [2], 0.463; under setting [1], 0.605.

For the sequence “ACAGACGAAGGAGCCGCAAAGAATTTATTAAGGGAGGAATAATCCCTCAATATAAATATCTCTCACTTATTTAAA”, the “cleaved RNA product abundance” value under setting [1] is 0.459.

“ACAGACGAAGGAGCCGCAAAGAATTTATTAAGGGATAAATAATCCCTCAATATAAATATCTCTCACTTATTTAAA”: the “cleaved RNA product abundance” value is, setting by setting: under setting [2], 0.767; under setting [1], 0.595.

Regarding “ACAGACGAAGGAGCCGCAAAGAATTTATTAAGGGATCAATAATCCCTCAATATAAATATCTCTCACTTATTTAAA”, under setting [1], the “cleaved RNA product abundance” value amounted to 0.73.

For “ACAGACGAAGGAGCCGCAAAGAATTTATTAAGGGATGAAAAATCCCTCAATATAAATATCTCTCACTTATTTAAA”, the “cleaved RNA product abundance” value under setting [2] amounted to 0.561 and the “cleaved RNA product abundance” value under setting [1] amounted to 0.35.

With “ACAGACGAAGGAGCCGCAAAGAATTTATTAAGGGATGAACAATCCCTCAATATAAAAATCTCTCACTTATTTAAA”, under setting [1], the “cleaved RNA product abundance” value was 0.8.

With “ACAGACGAAGGAGCCGCAAAGAATTTATTAAGGGATGAACAATCCCTCAATATAAATATCTCTCACTTATTTAAA”, the “cleaved RNA product abundance” value under setting [1] came to 0.451.

With “ACAGACGAAGGAGCCGCAAAGAATTTATTAAGGGATGAATAAACCCTCAATATAAATATCTCTCACTTATTTAAA”, the “cleaved RNA product abundance” value by setting is: under setting [2], 0.322; under setting [1], 0.292.

In the case of “ACAGACGAAGGAGCCGCAAAGAATTTATTAAGGGATGAATAACCCCTCAATATAAATATCTCTCACTTATTTAAA”, the “cleaved RNA product abundance” value under setting [1] is 0.452.

In the case of “ACAGACGAAGGAGCCGCAAAGAATTTATTAAGGGATGAATAAGCCCTCAATATAAATATCTCTCACTTATTTAAA”, the “cleaved RNA product abundance” value by setting is: under setting [2], 0.502; under setting [1], 0.573.

For “ACAGACGAAGGAGCCGCAAAGAATTTATTAAGGGATGAATAATACCTCAATATAAATATCTCTCACTTATTTAAA”, the “cleaved RNA product abundance” value under setting [2] was 0.105 and the “cleaved RNA product abundance” value under setting [1] came out at 0.177.

With “ACAGACGAAGGAGCCGCAAAGAATTTATTAAGGGATGAATAATCACTCAATATAAATATCTCTCACTTATTTAAA”, the “cleaved RNA product abundance” value by setting is: under setting [2], 0.134; under setting [1], 0.119.

For “ACAGACGAAGGAGCCGCAAAGAATTTATTAAGGGATGAATAATCCATCAATATAAATATCTCTCACTTATTTAAA”, the “cleaved RNA product abundance” value by setting is: under setting [2], 0.204; under setting [1], 0.269.

As for “ACAGACGAAGGAGCCGCAAAGAATTTATTAAGGGATGAATAATCCCACAATATAAATATCTCTCACTTATTTAAA”, under setting [1], the “cleaved RNA product abundance” value turned out to be 0.259.

Turning to “ACAGACGAAGGAGCCGCAAAGAATTTATTAAGGGATGAATAATCCCCCAATATAAATATCTCTCACTTATTTAAA”, the “cleaved RNA product abundance” value reads like this: under setting [2], 0.189; under setting [1], 0.202.

With “ACAGACGAAGGAGCCGCAAAGAATTTATTAAGGGATGAATAATCCCTAAATATAAATATCTCTCACTTATTTAAA”, the “cleaved RNA product abundance” value amounted to 0.496 under setting [2] and 0.591 under setting [1].

“ACAGACGAAGGAGCCGCAAAGAATTTATTAAGGGATGAATAATCCCTCAAAATAAATATCTCTCACTTATTTAAA”: the “cleaved RNA product abundance” value runs as follows: under setting [2], 0.198; under setting [1], 0.273.

Take “ACAGACGAAGGAGCCGCAAAGAATTTATTAAGGGATGAATAATCCCTCAACATAAATATCTCTCACTTATTTAAA”: the “cleaved RNA product abundance” value by setting is: under setting [2], 0.298; under setting [1], 0.365.

Turning to “ACAGACGAAGGAGCCGCAAAGAATTTATTAAGGGATGAATAATCCCTCAATAAAAATATCTCTCACTTATTTAAA”, the “cleaved RNA product abundance” value under setting [1] came to 0.066.

For the sequence “ACAGACGAAGGAGCCGCAAAGAATTTATTAAGGGATGAATAATCCCTCAATAGAAATATCTCTCACTTATTTAAA”, under setting [1], the “cleaved RNA product abundance” value amounted to 0.0925.

Turning to “ACAGACGAAGGAGCCGCAAAGAATTTATTAAGGGATGAATAATCCCTCAATATAAAAATCTCTCACTTATTTAAA”, the “cleaved RNA product abundance” value under setting [1] amounted to 0.532.
